Source: patent US20130273029A1 (Novartis, published 2013)
Where a chain is given by its changes, count along the chain named.

B1: MOR12509 (antibody, human IgG1, kappa, V domains shown)
VH: QVQLVQSGAEVKKPGESLKISCKGSGYSFTNSWVAWVRQMPGKGLEWMGIIYPGNSDTIYSPSFQGQVTISADKSISTAYLQWSSLKASDTAMYYCARVHIIQPPSAWSYNAMDVWGQGTLVTVSS
VL: DIQMTQSPSSLSASVGDRVTITCRASQSITHYLNWYQQKPGKAPKLLIFGASNLQSGVPSRFSGSGSGTDFTLTISSLQPEDFATYYCQQAFVDPSTTFGQGTKVEIKR
notes: tested as IgG
B2: MOR13871 (antibody, human IgG1, kappa, V domains shown)
VH: B1 VH with T30S, S32Y, V34I, N55S
VL: DIQMTQSPSSLSASVGDRVTITCRASQSISTYLNWYQQKPGKAPKLLIFGASNLQSGVPSRFSGSGSGTDFTLTISSLQPEDFATYYCQQSITELFTFGQGTKVEIKR
notes: tested as IgG
B3: MOR13867 (antibody, human IgG1, kappa, V domains shown)
VH: B1 VH with T30S, S32Y, V34I, N55Q
VL: B2 VL
notes: tested as IgG
B4: MOR13870 (antibody, human IgG1, kappa, V domains shown)
VH: B1 VH with T30S, S32Y, V34I, N55T
VL: B2 VL
notes: tested as IgG
B5: MOR13868 (antibody, human IgG1, kappa, V domains shown)
VH: B1 VH with T30S, S32Y, V34I, N55L
VL: B2 VL
notes: tested as IgG
B6: MOR13765 (antibody, human IgG1, kappa, V domains shown)
VH: B1 VH with N31G, N55T
VL: B2 VL
notes: tested as IgG
B7: MOR13766 (antibody, human IgG1, kappa, V domains shown)
VH: B1 VH with N31T, S32T, N55S
VL: B2 VL
notes: tested as IgG
B8: MOR13869 (antibody, human IgG1, kappa, V domains shown)
VH: B1 VH with T30S, S32Y, V34I, N55G
VL: B2 VL
notes: tested as IgG
B9: MOR12510 (antibody, human IgG1, kappa, V domains shown)
VH: B1 VH
VL: B2 VL with S91D, T93D, L95P, F96W
notes: tested as IgG
B10: MOR13767 (antibody, human IgG1, kappa, V domains shown)
VH: B1 VH with N31T, N55Q
VL: B2 VL
notes: tested as IgG

molecular target: T1, Human HER3, endogenous, on human cancer cell lines (SK-Br-3, MCF7, BT-474) (human, UniProt P21860 20-1342); test: cell-based or functional assay
T1 sequence (P21860 20-1342): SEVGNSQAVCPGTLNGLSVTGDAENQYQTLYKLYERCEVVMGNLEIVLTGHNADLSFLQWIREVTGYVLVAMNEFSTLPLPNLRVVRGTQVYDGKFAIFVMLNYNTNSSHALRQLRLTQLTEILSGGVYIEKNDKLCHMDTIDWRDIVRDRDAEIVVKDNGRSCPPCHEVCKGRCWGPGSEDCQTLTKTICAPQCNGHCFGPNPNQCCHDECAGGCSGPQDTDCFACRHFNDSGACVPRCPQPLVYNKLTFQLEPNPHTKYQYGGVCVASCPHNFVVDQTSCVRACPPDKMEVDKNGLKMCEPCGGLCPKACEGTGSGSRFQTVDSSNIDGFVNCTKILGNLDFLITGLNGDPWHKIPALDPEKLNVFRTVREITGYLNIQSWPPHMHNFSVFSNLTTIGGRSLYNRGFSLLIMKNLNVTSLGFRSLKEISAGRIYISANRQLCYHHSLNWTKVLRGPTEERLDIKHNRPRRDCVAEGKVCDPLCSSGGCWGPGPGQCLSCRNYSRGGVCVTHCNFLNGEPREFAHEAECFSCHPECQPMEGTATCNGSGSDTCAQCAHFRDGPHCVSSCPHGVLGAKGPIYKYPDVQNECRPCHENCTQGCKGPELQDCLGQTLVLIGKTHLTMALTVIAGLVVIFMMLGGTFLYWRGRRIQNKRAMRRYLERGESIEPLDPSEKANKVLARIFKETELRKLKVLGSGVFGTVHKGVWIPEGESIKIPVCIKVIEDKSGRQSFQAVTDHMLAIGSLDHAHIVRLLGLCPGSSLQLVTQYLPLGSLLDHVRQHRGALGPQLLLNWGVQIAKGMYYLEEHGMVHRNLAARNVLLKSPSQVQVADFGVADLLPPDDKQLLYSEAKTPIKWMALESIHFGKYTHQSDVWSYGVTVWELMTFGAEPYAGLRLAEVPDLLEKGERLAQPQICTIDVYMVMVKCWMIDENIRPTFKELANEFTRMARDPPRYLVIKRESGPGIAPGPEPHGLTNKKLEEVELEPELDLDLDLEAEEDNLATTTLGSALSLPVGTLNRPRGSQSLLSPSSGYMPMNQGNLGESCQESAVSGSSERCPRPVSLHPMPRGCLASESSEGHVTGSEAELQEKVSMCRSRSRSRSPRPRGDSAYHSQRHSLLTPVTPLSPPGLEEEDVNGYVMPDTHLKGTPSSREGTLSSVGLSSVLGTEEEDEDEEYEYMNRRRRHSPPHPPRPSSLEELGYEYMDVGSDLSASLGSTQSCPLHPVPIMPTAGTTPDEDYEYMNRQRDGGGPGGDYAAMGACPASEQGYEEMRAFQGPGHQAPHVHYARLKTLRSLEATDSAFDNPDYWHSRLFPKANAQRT

In order of falling “MCF7 proliferation % inhibition” value:
1. B3  69%
2. B2  58%
3. B5  58%
4. B7  53%
5. B8  52%
6. B4  48%
7. B9  25%
8. B1  24%

In order of falling “MCF7 proliferation IC50” value:
1. B1  1470 pM
2. B9  483 pM
3. B4  61 pM
4. B3  56 pM

In order of rising “SK-Br-3 proliferation % inhibition” value:
1. B8  24%
2. B5  29%
3. B2  32%
4. B4  39%
5. B3  41%
6. B9  44%
7. B1  45%
8. B7  45%
9. B6  46%
10. B10  48%

In order of rising “SK-Br-3 proliferation IC50” value:
1. B5  251 pM
2. B10  285 pM
3. B3  310 pM
4. B9  355 pM
5. B1  572 pM
6. B6  732 pM
7. B4  1140 pM
8. B2  1290 pM
9. B7  2350 pM
10. B8  5410 pM

In order of rising “BT-474 proliferation % inhibition” value:
1. B6  27%
2. B8  28%
3. B7  37%
4. B5  39%
5. B3  42%
6. B2  43%
7. B4  43%
8. B10  48%

In order of falling “BT-474 proliferation IC50” value:
1. B8  10600 pM
2. B6  3100 pM
3. B7  2560 pM
4. B5  1720 pM
5. B2  1000 pM
6. B10  924 pM
7. B4  539 pM
8. B3  376 pM

molecular target: T1, Human HER3, endogenous, on human cancer …; test: cell-based or functional assay; remark: another data set of the same source

In order of rising “BT474 pHER3 % inhibition” value:
1. B8  55%
2. B6  61%
3. B10  61%
4. B7  62%
5. B4  66%
6. B2  68%
7. B5  68%
8. B3  71%
9. B1  84%
10. B9  85%

In order of rising “MCF7 pHER3 % inhibition” value:
1. B8  64%
2. B1  70%
3. B4  71%
4. B6  71%
5. B7  72%
6. B9  73%
7. B2  74%
8. B5  75%
9. B3  78%

In order of rising “MCF7 pHER3 IC50” value:
1. B2  43 pM
2. B4  84 pM
3. B5  189 pM
4. B3  267 pM
5. B7  354 pM
6. B6  374 pM
7. B8  427 pM
8. B9  450 pM
9. B1  712 pM

In order of rising “SK-Br-3 pHER3 % inhibition” value:
1. B1  76%
2. B8  77%
3. B9  78%
4. B10  78%
5. B6  79%
6. B7  79%
7. B4  81%
8. B2  83%
9. B3  83%
10. B5  83%

In order of falling “SK-Br-3 pHER3 IC50” value:
1. B1  483 pM
2. B8  263 pM
3. B6  227 pM
4. B5  205 pM
5. B9  157 pM
6. B10  130 pM
7. B4  110 pM
8. B3  107 pM
9. B7  106 pM
10. B2  105 pM

In order of rising “BT474 pHER3 IC50” value:
1. B9  34 pM
2. B10  496 pM
3. B4  535 pM
4. B2  608 pM
5. B3  643 pM
6. B7  708 pM
7. B6  806 pM
8. B5  894 pM
9. B8  1330 pM

molecular target: T1, Human HER3, endogenous, on human cancer …; test: cell-based or functional assay; remark: another data set of the same source

In order of rising “BT-474 pAkt (S473) % inhibition” value:
1. B6  73%
2. B7  75%
3. B4  77%
4. B8  79%
5. B5  81%
6. B10  82%
7. B2  83%
8. B3  84%

In order of rising “BT-474 pAkt (S473) IC50” value:
1. B10  167 pM
2. B4  424 pM
3. B3  472 pM
4. B5  537 pM
5. B6  1180 pM
6. B7  1190 pM
7. B2  1630 pM
8. B8  3040 pM

In order of falling “SK-Br-3 pAkt (S473) % inhibition” value:
1. B3  95%
2. B2  93%
3. B5  92%
4. B4  91%
5. B7  91%
6. B8  91%
7. B6  90%
8. B10  89%

In order of rising “SK-Br-3 pAkt (S473) IC50” value:
1. B4  76 pM
2. B5  78 pM
3. B7  89 pM
4. B10  92 pM
5. B2  97 pM
6. B6  113 pM
7. B3  120 pM
8. B8  212 pM

In order of falling “MCF7 pAkt (S473) % inhibition” value:
1. B6  71%
2. B7  67%

In order of rising “MCF7 pAkt (S473) IC50” value:
1. B7  296 pM
2. B6  412 pM

molecular target: T2, Rat HER3: CD33-[Rat HER3, residues 20-643]-TAG (rat, UniProt Q62799 20-643); test: SET, IgG vs soluble HER3-Tag
T2 construct: also called ra HER3-Tag; not shown: C-terminal TAG (e.g., FLAG TAG)
Experimental: (§1) Affinity determination in solution was essentially performed as previously described (Friguet et al., (1985) J Immunol Methods 77:305-19). In order to improve the sensitivity and accuracy of the SET method, it was transferred from classical ELISA to ECL based technology (Haenel et al., (2005) Anal Biochem 339:182-84).
(§2) The data was evaluated with XLfit software (ID Business Solutions) applying customized fitting models.
(§3) Antibody affinity was determined by solution equilibrium titration (SET) as described above. The results are summarized in Table 3 and example titration curves for MOR12616 and MOR12925 are contained in FIG. 1.

T2 sequence (Q62799 20-643): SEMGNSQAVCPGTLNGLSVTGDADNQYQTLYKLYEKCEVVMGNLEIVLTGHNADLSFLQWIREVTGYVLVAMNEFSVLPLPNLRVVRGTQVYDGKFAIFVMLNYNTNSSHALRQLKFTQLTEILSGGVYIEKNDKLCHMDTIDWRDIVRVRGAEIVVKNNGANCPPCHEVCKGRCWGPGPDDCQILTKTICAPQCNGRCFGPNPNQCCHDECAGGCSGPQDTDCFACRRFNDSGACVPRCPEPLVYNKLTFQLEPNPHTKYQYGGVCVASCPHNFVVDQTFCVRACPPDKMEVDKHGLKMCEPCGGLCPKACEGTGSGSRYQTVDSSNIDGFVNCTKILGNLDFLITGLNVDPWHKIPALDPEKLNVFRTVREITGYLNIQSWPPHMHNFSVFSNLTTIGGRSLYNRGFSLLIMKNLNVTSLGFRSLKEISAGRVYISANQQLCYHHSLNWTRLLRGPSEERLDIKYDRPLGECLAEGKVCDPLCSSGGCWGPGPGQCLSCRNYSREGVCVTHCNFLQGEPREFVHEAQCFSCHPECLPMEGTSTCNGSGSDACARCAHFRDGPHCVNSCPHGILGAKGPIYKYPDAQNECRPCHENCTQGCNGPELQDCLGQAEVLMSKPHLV

In order of falling Kd:
1. B9  0.75 nM
2. B1  0.48 nM

molecular target: T3, Mu HER3: CD33-[Murine HER3, residues 20-643]-TAG (murine, UniProt Q61526 20-643); test: SET, IgG vs soluble HER3-Tag
T3 construct: also called mu HER3-Tag; not shown: C-terminal TAG (e.g., FLAG TAG)
Experimental: as §1, §2, §3

T3 sequence (Q61526 20-643): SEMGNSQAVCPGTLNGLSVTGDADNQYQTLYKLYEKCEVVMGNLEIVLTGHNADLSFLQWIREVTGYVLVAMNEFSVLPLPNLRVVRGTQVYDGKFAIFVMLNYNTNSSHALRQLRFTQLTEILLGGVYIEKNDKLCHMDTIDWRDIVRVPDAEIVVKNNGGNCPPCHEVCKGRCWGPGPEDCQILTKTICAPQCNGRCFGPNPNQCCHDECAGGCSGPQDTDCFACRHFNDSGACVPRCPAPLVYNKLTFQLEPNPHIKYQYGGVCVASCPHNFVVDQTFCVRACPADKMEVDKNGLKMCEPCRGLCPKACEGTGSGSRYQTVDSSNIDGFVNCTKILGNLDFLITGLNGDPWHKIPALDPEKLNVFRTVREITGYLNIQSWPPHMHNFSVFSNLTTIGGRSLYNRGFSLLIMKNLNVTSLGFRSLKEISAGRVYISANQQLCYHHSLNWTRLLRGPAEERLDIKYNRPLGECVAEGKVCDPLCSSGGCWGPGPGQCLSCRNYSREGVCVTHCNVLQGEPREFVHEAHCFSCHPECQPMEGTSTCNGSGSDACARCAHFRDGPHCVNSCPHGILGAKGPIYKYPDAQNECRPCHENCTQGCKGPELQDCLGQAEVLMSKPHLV

In order of rising Kd:
1. B9  0.2 nM
2. B1  0.25 nM

molecular target: T4, Cyno HER3: CD33-[Cyno HER3, residues 20-643]-TAG (cynomolgus, UniProt G7PIG5 20-643); test: SET, IgG vs soluble HER3-Tag
T4 construct: also called cy HER3-Tag; not shown: C-terminal TAG (e.g., FLAG TAG)
Experimental: as §1, §2, §3

T4 sequence (G7PIG5 entry or part of it): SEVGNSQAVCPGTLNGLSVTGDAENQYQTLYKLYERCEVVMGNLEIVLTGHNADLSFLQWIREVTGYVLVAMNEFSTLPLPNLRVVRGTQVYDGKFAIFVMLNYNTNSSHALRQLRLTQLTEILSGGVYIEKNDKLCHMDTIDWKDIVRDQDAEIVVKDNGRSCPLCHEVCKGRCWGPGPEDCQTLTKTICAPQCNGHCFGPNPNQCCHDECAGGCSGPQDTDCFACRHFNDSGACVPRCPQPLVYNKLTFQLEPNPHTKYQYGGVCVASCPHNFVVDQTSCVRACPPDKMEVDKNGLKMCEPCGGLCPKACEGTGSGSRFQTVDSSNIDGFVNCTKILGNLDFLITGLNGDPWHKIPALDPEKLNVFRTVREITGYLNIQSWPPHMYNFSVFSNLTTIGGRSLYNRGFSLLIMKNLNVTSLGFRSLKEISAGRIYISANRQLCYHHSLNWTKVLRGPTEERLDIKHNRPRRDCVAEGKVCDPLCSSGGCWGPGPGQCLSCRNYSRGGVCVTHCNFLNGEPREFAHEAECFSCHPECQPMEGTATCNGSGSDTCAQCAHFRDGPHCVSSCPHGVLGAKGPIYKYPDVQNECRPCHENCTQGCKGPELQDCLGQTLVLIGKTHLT

In order of rising Kd:
1. B1  0.32 nM
2. B9  0.4 nM

molecular target: T5, Hu HER3: CD33-[Human HER3, residues 20-640]-TAG (human, UniProt P21860 20-640); test: SET, IgG vs soluble HER3-Tag
T5 construct: also called hu HER3-Tag; HER3-Tag; not shown: C-terminal TAG (e.g., FLAG TAG)
Experimental: as §1, §2, §3

T5 sequence (P21860 20-640): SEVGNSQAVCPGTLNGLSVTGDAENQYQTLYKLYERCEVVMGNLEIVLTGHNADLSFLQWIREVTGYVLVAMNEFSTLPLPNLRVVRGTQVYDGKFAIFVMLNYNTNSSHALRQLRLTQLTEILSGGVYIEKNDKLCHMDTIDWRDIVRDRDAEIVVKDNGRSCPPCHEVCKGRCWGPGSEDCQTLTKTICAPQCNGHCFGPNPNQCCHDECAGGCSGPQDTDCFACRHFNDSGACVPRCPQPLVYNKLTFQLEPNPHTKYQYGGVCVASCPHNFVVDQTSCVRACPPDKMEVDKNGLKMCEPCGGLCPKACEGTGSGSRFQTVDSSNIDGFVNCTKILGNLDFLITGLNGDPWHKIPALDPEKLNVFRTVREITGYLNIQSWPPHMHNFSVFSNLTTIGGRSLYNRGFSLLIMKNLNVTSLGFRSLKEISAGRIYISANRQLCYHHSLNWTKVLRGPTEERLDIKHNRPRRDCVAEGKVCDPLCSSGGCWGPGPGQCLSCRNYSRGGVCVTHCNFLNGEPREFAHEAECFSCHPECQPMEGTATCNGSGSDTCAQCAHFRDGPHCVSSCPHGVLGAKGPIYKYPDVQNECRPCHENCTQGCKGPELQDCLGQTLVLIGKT

In order of falling Kd:
1. B8  0.23 nM
2. B2  0.193 nM
3. B4  0.173 nM
4. B5  0.133 nM
5. B1  0.078 nM
6. B6  0.064 nM
7. B9  0.055 nM
8. B7  0.054 nM
9. B3  0.03 nM
10. B10  0.024 nM
